Patent US20150315556

Columns and labels:
[1] = target: T1, CCR2 rationally-designed meganuclease (I-CreI derivative)
T1 chain: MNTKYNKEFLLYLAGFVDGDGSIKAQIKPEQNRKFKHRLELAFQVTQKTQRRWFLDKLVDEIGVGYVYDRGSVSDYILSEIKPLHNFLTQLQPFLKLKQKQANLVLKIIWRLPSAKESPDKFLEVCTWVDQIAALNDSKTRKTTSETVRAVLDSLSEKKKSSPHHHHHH

[2] = target: T2, MYD2 rationally-designed meganuclease (I-CreI derivative)
T2 chain: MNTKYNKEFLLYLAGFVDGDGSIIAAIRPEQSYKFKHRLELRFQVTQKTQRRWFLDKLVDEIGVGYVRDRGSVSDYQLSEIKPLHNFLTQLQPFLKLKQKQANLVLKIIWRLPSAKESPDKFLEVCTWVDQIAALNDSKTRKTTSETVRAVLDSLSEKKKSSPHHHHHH

[3] = target: T3, HSV2 rationally-designed meganuclease (I-CreI derivative)
T3 chain: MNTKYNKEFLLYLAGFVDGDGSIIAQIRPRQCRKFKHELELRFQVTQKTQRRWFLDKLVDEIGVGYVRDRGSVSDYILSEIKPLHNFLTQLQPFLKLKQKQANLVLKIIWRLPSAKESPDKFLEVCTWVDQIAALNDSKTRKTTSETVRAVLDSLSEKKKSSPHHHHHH

B1: CCR1 rationally-designed meganuclease (I-CreI derivative) (protein)
chain: MNTKYNKEFLLYLAGFVDGDGSIKAQIRPRQNYKFKHELELEFQVTQKTQRRWFLDKLVDEIGVGYVYDRGSVSDYILSEIKPLHNFLTQLQPFLKLKQKQANLVLKIIWRLPSAKESPDKFLEVCTWVDQIAALNDSKTRKTTSETVRAVLDSLSEKKKSSPHHHHHH
cleavage of a linearized DNA substrate containing the intended non-palindromic recognition sequence by the 1:1 mixture [1]: each rationally-designed meganuclease heterodimer cleaves its intended DNA site

B2: MYD1 rationally-designed meganuclease (I-CreI derivative) (protein)
chain: MNTKYNKEFLLYLAGFVDGDGSIIAQIRPRQSYKFKHELELAFQVTQKTQRRWFLDKLVDEIGVGKVRDRGSVSDYELSEIKPLHNFLTQLQPFLKLKQKQANLVLKIIWRLPSAKESPDKFLEVCTWVDQIAALNDSKTRKTTSETVRAVLDSLSEKKKSSPHHHHHH
cleavage of a linearized DNA substrate containing the intended non-palindromic recognition sequence by the 1:1 mixture [2]: each rationally-designed meganuclease heterodimer cleaves its intended DNA site

B3: HSV1 rationally-designed meganuclease (I-CreI derivative) (protein)
chain: MNTKYNKEFLLYLAGFVDGDGSIIAQIKPRQSCKFKHELRLQFQVTQKTQRRWFLDKLVDEIGVGYVRDRGSVSDYILSEIKPLHNFLTQLQPFLKLKQKQANLVLKIIWRLPSAKESPDKFLEVCTWVDQIAALNDSKTRKTTSETVRAVLDSLSEKKKSSPHHHHHH
cleavage of a linearized DNA substrate containing the intended non-palindromic recognition sequence by the 1:1 mixture [3]: each rationally-designed meganuclease heterodimer cleaves its intended DNA site
